Reference: patent US20180244776A1
Substitutions are numbered along the chain they refer to.

T1: human Sema3A (human) (UniProt Q14563)
T1 sequence (looked up): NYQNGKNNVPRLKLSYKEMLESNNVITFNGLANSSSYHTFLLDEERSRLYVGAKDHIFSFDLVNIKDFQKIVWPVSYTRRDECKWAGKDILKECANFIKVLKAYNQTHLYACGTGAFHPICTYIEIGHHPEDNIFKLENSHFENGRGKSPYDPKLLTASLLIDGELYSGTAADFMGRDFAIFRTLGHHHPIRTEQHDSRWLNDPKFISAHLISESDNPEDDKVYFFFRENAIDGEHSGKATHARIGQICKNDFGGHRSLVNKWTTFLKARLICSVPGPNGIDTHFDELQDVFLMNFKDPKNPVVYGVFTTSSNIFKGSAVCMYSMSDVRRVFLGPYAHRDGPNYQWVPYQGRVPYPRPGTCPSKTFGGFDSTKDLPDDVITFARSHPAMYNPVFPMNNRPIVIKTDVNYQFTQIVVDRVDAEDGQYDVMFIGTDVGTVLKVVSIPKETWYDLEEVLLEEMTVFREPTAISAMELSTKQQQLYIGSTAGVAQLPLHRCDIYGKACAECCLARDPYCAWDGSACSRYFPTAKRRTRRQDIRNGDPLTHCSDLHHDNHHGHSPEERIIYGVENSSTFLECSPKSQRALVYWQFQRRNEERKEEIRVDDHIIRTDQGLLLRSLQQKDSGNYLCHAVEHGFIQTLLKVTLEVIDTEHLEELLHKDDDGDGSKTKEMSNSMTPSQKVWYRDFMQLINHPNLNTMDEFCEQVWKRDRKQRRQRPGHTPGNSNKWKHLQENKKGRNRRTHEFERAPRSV

B1: F11 anti-Sema3A scFv antibody fragment (scFv, part only; not given: linker and His/HA tags, V domains shown, not shown: another chain or arm of the molecule; large carriers; small tags and cut ends)
VH: EVQLLESGGGLVQTGGSLRLSCAASGFTFSDYAMSWVRQAPGKGLEWVSWIYYDSGSKYYADSVKGRFTISRDNSKNTLYLQMNSLRAEDTAVYYCAKLNGDFDYWGQGTLVTVSS
VL: QSVLTQPPSASGTPGQRVTISCSGSSSNIGNNDVSWYQQLPGTAPKLLIYADSHRPSGVPDRFSGSKSGTSASLAISGLRSEDEADYYCGAWDSSLSGYVFGGGTKLTVL
B2: A08 anti-Sema3A scFv antibody fragment (scFv, part only; not given: linker and His/HA tags, V domains shown, not shown: another chain or arm of the molecule; large carriers; small tags and cut ends)
VH: B1 VH with T14P, W50G, S55D, G56S, K58Q, L99N, N100L, D102R
VL: B1 VL with S23T, N31S, D33A, S35T, A51D, S53N, S94D, G98A
B3: C10 anti-Sema3A scFv antibody fragment (scFv, part only; not given: linker and His/HA tags, V domains shown, not shown: another chain or arm of the molecule; large carriers; small tags and cut ends)
VH: B1 VH with T14P, W50G, S55D, G56S, K58Q, K65E, K98R, L99Y, N100L, D102L
VL: B1 VL with D33S, S35N, A51S, H54Q, A91S, S94Y, G98A

Target: T1, human Sema3A (human)
Experiment: cell-based or functional assay

With B1 as the binder, how does the cell migration of U87-MG cells (transwell, 50 ug/ml scFv) read?
Its cell migration of U87-MG cells (transwell, 50 ug/ml scFv) is 74 % of control.

And the cell migration of patient-derived 83 cells (transwell)?
Its cell migration of patient-derived 83 cells (transwell) is 28%.

And the cell migration of patient-derived 131 cells (transwell)?
The cell migration of patient-derived 131 cells (transwell) was 7%.

What does the source list for B2?
cell migration of U87-MG cells (transwell, 50 ug/ml scFv): 78 % of control; cell migration of patient-derived 83 cells (transwell): 21%; cell migration of patient-derived 131 cells (transwell): 11%

Which results are given for B3?
cell migration of U87-MG cells (transwell, 50 ug/ml scFv): 70 % of control; cell migration of patient-derived 83 cells (transwell): 44%; cell migration of patient-derived 131 cells (transwell): 19%
